Experimental data from patent US20210107983A1 (Boehringer Ingelheim, published 2021).
Numbering of substitutions follows the chain as printed. One block for each binder: values may come before it.

Assays:
[1] = target: T1, trypsin inhibitor from Glycine max soybean (Glycine max (soybean)); assay: SPR, 1 µM binder over immobilized trypsin inhibitor
T1 construct: unrelated negatively charged protein, amine-coupled to the chip
Method in brief: (§1)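 Non-specific binding tested with samples at 1 μM in HBS-EP at 25 °C, 5 μL/min, over lysozyme or trypsin inhibitor amine-coupled to CM5 chip (3000–5000 RU). Association 10 min, dissociation 15 min.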

[2] = target: T2, Human B7H1 (human, UniProt Q9NZQ7 20-239); assay: SPR, binder captured on Protein A/G, HuB7H1 analyte
T2 construct: also called HuB7H1; huB7-H1
Method in brief: (§2)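 B7H6/CD3 binder captured (~700 RU) on a Protein A/G CM5 surface in HBS-EP+. Human or cyno B7H6 injected at 0–100 nM and human B7H1 at 0 nM and 1 μM, 300 s association and 1200 s dissociation. Data double-referenced against the reference flow cell and blank.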

[3] = target: T3, chicken egg white lysozyme (chicken, UniProt P00698 19-147); assay: SPR, 1 µM binder over immobilized lysozyme
T3 construct: unrelated positively charged protein, amine-coupled to the chip; also called Lysozyme (positive)
Method in brief: as §1

[4] = target: T4, Cyno B7H6-His (cynomolgus monkey); assay: SPR, binder captured on Protein A/G, B7H6 analyte
T4 construct: also called CyB7H6; cyB7-H6
T4 chain: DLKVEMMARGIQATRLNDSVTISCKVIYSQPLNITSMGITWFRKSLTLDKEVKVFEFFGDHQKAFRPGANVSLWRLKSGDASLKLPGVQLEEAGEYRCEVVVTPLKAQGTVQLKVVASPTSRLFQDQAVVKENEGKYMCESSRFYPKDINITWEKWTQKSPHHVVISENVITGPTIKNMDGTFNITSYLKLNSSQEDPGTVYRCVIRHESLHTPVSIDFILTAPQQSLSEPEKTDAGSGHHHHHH
Method in brief: as §2

[5] = target: T5, CD3 on human T-cells (human, UniProt P07766;P09693); assay: flow cytometry on purified human T-cells, PE anti-human secondary antibody
T5 construct: endogenous, on the surface of purified T-cells; also called human T-cells expressing CD3
Protocol: T-cells were isolated by negative selection using the Pan T Cell Isolation Kit II (Miltenyi Biotec #130-091-156). In brief, cells were resuspended in 40 μl buffer PBS/0.5% BSA (Gibco ref #041-94553 M)/2 mM EDTA (Invitrogen ref #15575-038) per 10 Mio cells and incubated with 10 μl of Biotin-Antibody cocktail per 10 Mio cells for 5 min at 4° C. Subsequently, 30 μl buffer and 20 μl anti-biotin MACS® MicroBeds/10 million cells were added and incubated for 10 min at 4° C. Subsequently the mixture was placed in a pre-rinsed 25LS column (Miltenyi Biotec #130-042-401) in the magnetic field of suitable MACS® microbeads separator (Miltenyi Biotec). Flow-through was collected and washed in assay medium.
T-cells were stained with increasing concentrations of two-step purified B7H6/CD3 binding proteins in FACS buffer (PBS/0.5% BSA/0.05% sodium azide). Bound molecules were detected with PE-conjugated anti-human secondary antibody (Sigma-Aldrich, #P8047).

[6] = target: T6, Cyno CD3 E+G HuFc-6xHis (cynomolgus monkey); assay: SPR, CD3E+G-hFc immobilized, binder analyte
T6 construct: also called CyCD3E+G-hFc; cyCD3
Method in brief: (§3)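 On a ProteOn XPR36, human and cyno CD3E+G-hFc were amine-coupled to a GLM chip at 0.4, 0.2 and 0.1 μg/mL in 10 mM acetate pH 4.5. B7H6/CD3 binding protein (0–100 nM) flowed in HBS-EP+ at 30 μL/min, with 300 s association and 600 s dissociation. Interspot and blank responses were subtracted.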

[7] = target: T7, Human CD3 E+G HuFc-6xHis (human); assay: SPR, CD3E+G-hFc immobilized, binder analyte
T7 construct: also called HuCD3E+G-hFc; huCD3
Method in brief: as §3

[8] = target: T4, Cyno B7H6-His; assay: ratio of SPR KDs cyno/human
[9] = target: T6, Cyno CD3 E+G HuFc-6xHis; assay: ratio of SPR KDs cyno/human

T7 sequence (chain, as listed by the source limits assumed): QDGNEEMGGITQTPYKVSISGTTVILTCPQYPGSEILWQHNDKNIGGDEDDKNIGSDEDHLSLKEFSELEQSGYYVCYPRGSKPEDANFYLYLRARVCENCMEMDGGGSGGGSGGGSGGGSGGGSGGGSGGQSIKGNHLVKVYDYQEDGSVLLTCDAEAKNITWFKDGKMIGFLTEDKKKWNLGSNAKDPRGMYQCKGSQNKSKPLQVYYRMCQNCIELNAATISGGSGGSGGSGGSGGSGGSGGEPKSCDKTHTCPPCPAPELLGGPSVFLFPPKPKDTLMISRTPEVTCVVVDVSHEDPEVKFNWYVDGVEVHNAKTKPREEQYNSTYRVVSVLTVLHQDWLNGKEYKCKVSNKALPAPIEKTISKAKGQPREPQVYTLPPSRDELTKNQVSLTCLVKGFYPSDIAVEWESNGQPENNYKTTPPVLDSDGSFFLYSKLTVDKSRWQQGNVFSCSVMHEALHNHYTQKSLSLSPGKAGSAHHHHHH
T5 sequence (P07766 23-207, chain 1 of 2): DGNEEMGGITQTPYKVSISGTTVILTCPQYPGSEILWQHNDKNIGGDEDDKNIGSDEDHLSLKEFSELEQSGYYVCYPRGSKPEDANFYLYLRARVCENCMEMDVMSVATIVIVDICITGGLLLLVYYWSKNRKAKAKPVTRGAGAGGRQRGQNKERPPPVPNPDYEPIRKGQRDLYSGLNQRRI
T5 sequence (P09693 23-182, chain 2 of 2): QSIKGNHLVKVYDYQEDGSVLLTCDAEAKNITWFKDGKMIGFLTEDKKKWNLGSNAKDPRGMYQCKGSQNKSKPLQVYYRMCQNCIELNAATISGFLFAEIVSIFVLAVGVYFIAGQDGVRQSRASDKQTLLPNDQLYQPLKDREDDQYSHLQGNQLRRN
T3 sequence (P00698 19-147): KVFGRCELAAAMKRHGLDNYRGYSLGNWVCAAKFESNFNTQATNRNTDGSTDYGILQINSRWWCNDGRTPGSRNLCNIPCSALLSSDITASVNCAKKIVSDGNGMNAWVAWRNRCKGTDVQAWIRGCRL
T1 sequence (P01070 25-205): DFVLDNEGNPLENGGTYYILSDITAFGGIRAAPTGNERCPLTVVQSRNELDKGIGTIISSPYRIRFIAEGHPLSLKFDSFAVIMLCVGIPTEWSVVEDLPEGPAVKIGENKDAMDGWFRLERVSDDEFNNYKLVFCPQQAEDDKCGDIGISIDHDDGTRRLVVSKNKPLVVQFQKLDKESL
T6 sequence (chain, as listed by the source limits assumed): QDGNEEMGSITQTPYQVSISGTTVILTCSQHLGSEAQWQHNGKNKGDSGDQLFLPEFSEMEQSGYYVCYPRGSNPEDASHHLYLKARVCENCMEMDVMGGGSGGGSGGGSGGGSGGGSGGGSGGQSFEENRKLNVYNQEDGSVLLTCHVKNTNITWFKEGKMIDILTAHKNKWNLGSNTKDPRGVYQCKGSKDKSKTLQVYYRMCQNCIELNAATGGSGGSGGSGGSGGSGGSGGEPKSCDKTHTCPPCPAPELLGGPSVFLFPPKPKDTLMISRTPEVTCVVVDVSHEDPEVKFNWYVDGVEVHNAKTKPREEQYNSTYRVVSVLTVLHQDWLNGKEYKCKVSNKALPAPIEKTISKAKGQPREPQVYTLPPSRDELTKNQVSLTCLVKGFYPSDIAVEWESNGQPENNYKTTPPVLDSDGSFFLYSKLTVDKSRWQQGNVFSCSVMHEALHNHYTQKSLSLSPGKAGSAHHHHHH
T2 sequence (Q9NZQ7 other isoform, or with tags, fused parts or gaps limits assumed): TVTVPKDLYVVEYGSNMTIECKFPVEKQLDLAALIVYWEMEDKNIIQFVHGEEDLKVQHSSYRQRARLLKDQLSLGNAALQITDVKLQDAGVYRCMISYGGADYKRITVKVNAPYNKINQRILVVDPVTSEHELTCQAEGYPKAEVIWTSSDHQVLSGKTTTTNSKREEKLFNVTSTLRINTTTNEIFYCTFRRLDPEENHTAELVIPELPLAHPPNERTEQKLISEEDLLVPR

B2: B7H6#23/CD3#5 (bispecific antibody, human IgG1, kappa, L234A L235A)
chain 1: DIQMTQSPSSLSASVGDRVTITCKASQNVGKYVAWYQQKPGKAPKSLIYSASNRYDAVPSRFSGSGSGTDFTLTISSLQPEDFATYFCQQYISYPLTFGAGTKLEIKRTVAAPSVFIFPPSDEQLKSGTASVVCLLNNFYPREAKVQWKVDNALQSGNSQESVTEQDSKDSTYSLSSTLTLSKADYEKHKVYACEVTHQGLSSPVTKSFNRGECGGGGSEGKSSGSGSESKSTEGKSSGSGSESKSTGGGGSQVQLVQSGAEVKKPGASVKVSCKASGYTFTSYWMNWMKQAPGQGLEWIGGIYLSGESTDYNEKFKGKVTMTVDTSTSTVYMELSSLRSEDTAVYYCTRRGDYFGDFWGQGTLVTVSSASTKGPSVFPLAPSSKSTSGGTAALGCLVKDYFPEPVTVSWNSGALTSGVHTFPAVLQSSGLYSLSSVVTVPSSSLGTQTYICNVNHKPSNTKVDKRVEPKSCDKTHTCPPCPAPEAAGGPSVFLFPPKPKDTLMISRTPEVTCVVVDVSHEDPEVKFNWYVDGVEVHNAKTKPREEQYNSTYRVVSVLTVLHQDWLNGKEYKCKVSNKALPAPIEKTISKAKGQPREPQVYTLPPSREEMTKNQVSLWCLVKGFYPSDIAVEWESNGQPENNYKTTPPVLDSDGSFFLYSKLTVDKSRWQQGNVFSCSVMHEALHNHYTQKSLSLSPG
chain 2: not shown
notes: scFab-Fc heterodimer
Non-specific binding (RU) [1]: 115 RU
binding result [2]: no binding (tested: 1 µM)
Non-specific binding (RU) [3]: 15 RU
Kd [4]: 1.9 nM
binding result [5]: binds
Kd [6]: 3.7 nM
Kd [7]: 2.8 nM
cy/hu B7-H6 [8]: 0.9
cy/hu CD3 [9]: 1.3

B3: B7H6#23/CD3#3 (bispecific antibody, human IgG1, kappa, L234A L235A)
chain 1: B2 chain 1
chain 2: not shown
notes: scFab-Fc heterodimer
Non-specific binding (RU) [1]: 38.7 RU
binding result [2]: no binding (tested: 1 µM)
Non-specific binding (RU) [3]: 18.9 RU
Kd [4]: 1.9 nM
binding result [5]: binds
Kd [6]: 11.9 nM
Kd [7]: 13.8 nM
cy/hu B7-H6 [8]: 0.9
cy/hu CD3 [9]: 0.9

B5: B7H6#23/CD3#6 (bispecific antibody, human IgG1, kappa, L234A L235A)
chain 1: B2 chain 1
chain 2: not shown
notes: scFab-Fc heterodimer
Non-specific binding (RU) [1]: 96.5 RU
binding result [2]: no binding (tested: 1 µM)
Non-specific binding (RU) [3]: 57.2 RU
Kd [4]: 2 nM
binding result [5]: binds
Kd [6]: 3.9 nM
Kd [7]: 3.4 nM
cy/hu B7-H6 [8]: 1.1
cy/hu CD3 [9]: 1.2

The next binders have a lower Kd [4] than those just listed; values first:

Non-specific binding (RU) [1]: 12.2 RU
binding result [2]: no binding (tested: 1 µM)
Non-specific binding (RU) [3]: 11.2 RU
Kd [4]: 1 nM
binding result [5]: binds
Kd [6]: 17.7 nM
Kd [7]: 16.9 nM
cy/hu B7-H6 [8]: 0.9
cy/hu CD3 [9]: 1
B1: B7H6#14/CD3#2 (bispecific antibody, human IgG1, kappa, L234A L235A)
chain 1: B2 chain 1 with A57G, S283N, S306N, E308D
chain 2: not shown
notes: scFab-Fc heterodimer

Non-specific binding (RU) [1]: 20.7 RU
binding result [2]: no binding (tested: 1 µM)
Non-specific binding (RU) [3]: 6.8 RU
Kd [4]: 1.7 nM
binding result [5]: binds
Kd [6]: 3.6 nM
Kd [7]: 3.8 nM
cy/hu B7-H6 [8]: 1
cy/hu CD3 [9]: 0.9
B4: B7H6#23/CD3#4 (bispecific antibody, human IgG1, kappa, L234A L235A)
chain 1: B2 chain 1
chain 2: not shown
notes: scFab-Fc heterodimer

Non-specific binding (RU) [1]: 22.6 RU
binding result [2]: no binding (tested: 1 µM)
Non-specific binding (RU) [3]: 8.8 RU
Kd [4]: 1.1 nM
binding result [5]: binds
Kd [6]: 8.5 nM
Kd [7]: 7.6 nM
cy/hu B7-H6 [8]: 0.8
cy/hu CD3 [9]: 1.1
B6: B7H6#14/CD3#4 (bispecific antibody, human IgG1, kappa, L234A L235A)
chain 1: B2 chain 1 with A57G, S283N, S306N, E308D
chain 2: not shown
notes: scFab-Fc heterodimer
